From US20110086029A1 (University of California, published 2011) come the findings set out here.

The target of the assay is T1, murine N-Cadherin (murine, UniProt P15116 160-724, limits assumed).
T1 construct: The assay used to show cross-reactivity is not described
T1 sequence (looked up): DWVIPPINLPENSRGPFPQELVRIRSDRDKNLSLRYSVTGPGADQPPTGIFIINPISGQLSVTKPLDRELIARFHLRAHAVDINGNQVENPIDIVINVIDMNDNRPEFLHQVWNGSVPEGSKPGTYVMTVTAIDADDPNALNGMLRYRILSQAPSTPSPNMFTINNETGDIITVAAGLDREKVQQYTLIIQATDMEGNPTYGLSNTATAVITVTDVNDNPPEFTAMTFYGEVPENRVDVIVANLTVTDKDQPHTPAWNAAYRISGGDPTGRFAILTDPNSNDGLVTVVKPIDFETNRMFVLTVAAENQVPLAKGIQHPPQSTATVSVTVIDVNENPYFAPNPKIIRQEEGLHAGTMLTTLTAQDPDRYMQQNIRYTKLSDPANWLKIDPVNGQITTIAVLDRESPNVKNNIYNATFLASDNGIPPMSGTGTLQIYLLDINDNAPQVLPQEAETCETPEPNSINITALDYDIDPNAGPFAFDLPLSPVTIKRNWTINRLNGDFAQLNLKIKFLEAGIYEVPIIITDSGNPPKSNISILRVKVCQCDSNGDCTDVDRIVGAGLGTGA
Nature of the assay: assay not described.

B1: N-Cadherin antibody 1H7 (monoclonal antibody produced by mouse hybridoma ATCC Accession No. PTA-9387) (antibody, V domains shown)
VH: QVQLQQSGAELVKPGASVKLSCKASGFTFTDYLIQWVKQRSGQGLEWIGWFYPGSGSIKYNEKFKDKATLTADKSSNTVYMEISRLTSEDSAVYFCARRGDWGGFFDYWGQGTTLTVSS
VL: DIVLTQSPAIMSASLGERVTMTCTASSSVSSSYLHWYQQKPGSSPKLWIFSTSNLASGVPDRFSGSGSGTSYSLTINSMEAEDAATYYCHQYHRSLTFGAGTKLELK
notes: Mouse hybridoma monoclonal antibody
For the molecule B1, the binding result is “binds”.

B2: N-Cadherin antibody EC4 (monoclonal antibody produced by mouse hybridoma ATCC Accession No. PTA-9388) (antibody, V domains shown)
VH: QVKLQQSGAELARPGASVKLSCKASGYTFTSYWMQWVKQRPGQGLEWIGAIYPGDGETTYTQKFKGKATLTADKSSSTAYMQLSSLASEDSAVYYCAKGDGYWAMDYWGQGTSVTVSS
VL: DIVMTQTPLSLPVSLGDQASISCRSSQSLVHSNGNTYLHWYLQKPGQSPKLLIYKVSNRFSGVPDRFSGSGSGTDFTLKISRVEAEDLGVYFCSQSTHVPLTFGAGTKLELK
notes: as for B1
Turning to B2, the binding result is “binds”.
